# Laboratory results published in patent US6956022B2, “Agents for preventing and treating thrombocytopenia” (Chugai Seiyaku Kabushiki Kaisha, priority 1996, dated 2005).
# Experiments:
# platelet count [1] = test: Test for daily administration to mouse (peripheral platelet count); assay type: in vivo; details: C57B1/6N mice, subcutaneous once a day
# Description: Test for Daily Administration to Mouse
# Nine-week old male C57B1/6N mice as purchased from Japan Charles River Co., Ltd. were used in the experiment.
# Drug solutions to be administered were prepared basically by the same procedure as in Example 1 to give drug concentrations of 5, 20 and 80 μg/mL.
# The mice under test were divided into four groups, which were administered subcutaneously with the three drug solutions and a control (citrate buffer) once a day in a volume of 10 mL/kg. […] The administration was initiated at 10 a.m.
# On days 5, 7 and 9 after the start of administration, five or six mice were picked up at random from each group of animals and blood samples were withdrawn through the orbital vein. The sampling of blood was timed to occur 24 h of the final administration. Separate blood samples were taken from untreated mice (five in number) to obtain the value for normal mouse. Peripheral corpuscle counts were obtained with an automatic corpuscle counter F-800(TOA MEDICAL ELECTRONICS CO., LTD.).
# [2] = tested on: CFU-GM (precursor cells of granulocytes and macrophages); details: cited from earlier work
# platelet count [3] = test: Test for daily administration to rabbit (platelet count); assay type: in vivo; details: rabbits, 200 μg/kg subcutaneous daily
# Description: Test for Daily Administration to Rabbit
# Six 12-15 week old male Japanese albino rabbits JW/CSK were used in the experiment. The animals were individually kept in aluminum rabbit bracket cages Rb-1 (350^w×500^d×350^h mm) in a vavarium in a specific pathogen-free environment under the following conditions: temperature, 24±2° C.; humidity, 50±10%; illumination, light turned on at 5:00 and turned off at 19:00; ventilation, 15 changes/hr. Each animal was supplied with 120 g of a radiation-sterilized feed for rabbits RM (purchased from Funahashi Farm) per day. The animals were also allowed to drink to tap water ad libitum from an automatic water feeder.
# Human PTH(1-84) was administered in a volume of 2 mL/vial at a concentration of 200 μg/mL. A solvent was also supplied in a volume of 2 mL/vial. Both the drug and the control were stored at −135° C. until use.
# PTH (200 μg/kg) was administered to the rabbits subcutaneously at the back of their neck for 13 consecutive days. The solvent was similarly administered in the same volume as the dose of a rh-PTH solution calculated from their body weight.
# Blood samples (0.5 mL) were withdrawn from the rabbits through the lateral auricular vein before the administration and on days 2, 6, 9 and 13 during the administration period. […]
# [4] = tested on: BFU-E (precursor cells of erythrocytes); details: cited from earlier work
# platelet counts = test: Test for single-dose administration to mouse (peripheral platelet count); assay type: in vivo; details: C57B1/6N mice, single dose 10 μg/kg through the tail vein, 6 and 9 h after the administration
# Description: Test for Single-dose Administration to Mouse
# Nine-week old male C57B1/6N mice as purchased from Japan Charles River Co. Ltd. were used in the experiment.
# Human PTH(1-84) was dissolved in a citrate buffer (pH 5; containing 0.05% of Tween 80) at final concentrations of 1, 0.2 and 0.04 ˜g/mL so as to prepare the drug solutions to be administered.
# Each of the thus prepared drug solutions and a control (citrate buffer) was administered to 15 mice through the tail vein in a volume of 10 mL/kg. […] The administration was initiated at 10 a.m.
# After 3, 6 and 9 hours of the administration, five mice were picked up at random from each group of animals and blood samples were withdrawn through the orbital vein. At 10 a.m. on the same day, separate blood samples were taken from untreated mice (four in number) to obtain the preadministration value. Peripheral corpuscle counts were obtained with an automatic corpuscle counter F-800 (TOA MEDICAL ELECTRONICS CO., LTD.)
molecule,measurement,setting,value
"human PTH(1-84) (protein, UniProt P01270 32-115, looked up, Parathyroid hormone) Parathyroid hormone: SVSEIQLMHNLGKHLNSMERVEWLRKKLQDVHNFVALGAPLAPRDAGSQRPRKKEDNVLVESHEKSLGEADKADVNVLTKAKSQ",platelet count versus control,"platelet count [1]; all treated groups (50, 200 and 800 μg/kg), day 7",significantly higher in platelet count than the control
same,platelet count versus control,"platelet count [1]; groups administered 200 and 800 μg/kg, day 5",tendency to increase
same,in vitro colony formation by CFU-GM,[2],interfered with
same,platelet count relative to the initial level,platelet count [3]; day 13,substantially returned to the initial level
same,platelet count relative to the initial value,platelet count [3]; increase from day 2 until day 6,two to four times as great as the initial value
same,in vitro colony formation by BFU-E,[4],interfered with
same,platelet counts versus control,platelet counts,significant increase in platelet counts over the control
